Substitutions are numbered along the chain they refer to.
T1: Nectin4-HIS protein (AcroBiosystems #NE4-H52H3) (UniProt Q96NY8 32-349)
T1 construct: Bought protein; also called Nectin4 protein; recombinant Nectin4-HIS protein; not shown: His tag
T1 sequence (looked up): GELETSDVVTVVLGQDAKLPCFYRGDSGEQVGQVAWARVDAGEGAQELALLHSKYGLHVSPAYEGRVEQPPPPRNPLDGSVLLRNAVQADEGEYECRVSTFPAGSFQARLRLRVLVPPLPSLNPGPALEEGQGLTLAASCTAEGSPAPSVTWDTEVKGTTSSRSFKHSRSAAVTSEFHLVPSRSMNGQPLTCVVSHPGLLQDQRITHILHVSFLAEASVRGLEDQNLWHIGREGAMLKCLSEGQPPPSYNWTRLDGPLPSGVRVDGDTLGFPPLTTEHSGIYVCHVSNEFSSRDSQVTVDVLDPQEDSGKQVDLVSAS

B1: MARS SP_NEC_M_8_P3107_CD8 Hinge_CD28 tm_41BB_CD3Z (other)
chain: EVQLLESGGGLVQPGGSLRLSCAASGFTFSSYAMGWYRQAPGKEREFVSSISGSGGLTRYADSVKGRFTISRDNSKNTLYLQMNSLKPEDTAVYYCAVTTGYQGGVYDYWGQGTQVTVSSTTTPAPRPPTPAPTIASQPLSLRPEACRPAAGGAVHTRGLDFACDFWVLVVVGGVLACYSLLVTVAFIIFWVKRGRKKLLYIFKQPFMRPVQTTQEEDGCSCRFPEEEEGGCELRVKFSRSADAPAYQQGQNQLYNELNLGRREEYDVLDKRRGRDPEMGGKPRRKNPQEGLYNELQKDKMAEAYSEIGMKGERRRGKGHDGLYQGLSTATKDTYDALHMQALPPR
notes: Chimeric antigen receptor on transduced Nurkat cells or primary T cells
B2: MARS SP_NEC_M_5_P3106_CD8 Hinge_CD28 tm_41BB_CD3Z (other)
chain: EVQLLESGGGLVQPGGSLRLSCAASGLSFSSYSMGWYRQAPGKEREFVSAISGSSGSTNYADSVKGRFTISRDNSKNTLYLQMNSLKPEDTAVYYCAAEHRVTTSGVFYDYWGQGTQVTVSSTTTPAPRPPTPAPTIASQPLSLRPEACRPAAGGAVHTRGLDFACDFWVLVVVGGVLACYSLLVTVAFIIFWVKRGRKKLLYIFKQPFMRPVQTTQEEDGCSCRFPEEEEGGCELRVKFSRSADAPAYQQGQNQLYNELNLGRREEYDVLDKRRGRDPEMGGKPRRKNPQEGLYNELQKDKMAEAYSEIGMKGERRRGKGHDGLYQGLSTATKDTYDALHMQALPPR
notes: as for B1
B3: MARS SP_NEC_M_46_P3110_CD8 Hinge_CD28 tm_41BB_CD3Z (other)
chain: EVQLLESGGGLVQPGGSLRLSCAASGYTFSDYAMGWYRQAPGKERELVSSISGSGGSTRYADSVKGRFTISRDNSKNTLYLQMNSLKPEDTAVYYCAAVIRQPSTGFYEYWGQGTQVTVSSTTTPAPRPPTPAPTIASQPLSLRPEACRPAAGGAVHTRGLDFACDFWVLVVVGGVLACYSLLVTVAFIIFWVKRGRKKLLYIFKQPFMRPVQTTQEEDGCSCRFPEEEEGGCELRVKFSRSADAPAYQQGQNQLYNELNLGRREEYDVLDKRRGRDPEMGGKPRRKNPQEGLYNELQKDKMAEAYSEIGMKGERRRGKGHDGLYQGLSTATKDTYDALHMQALPPR
notes: as for B1
B4: MARS SP_NEC_M_44_P3109_CD8 Hinge_CD28 tm_41BB_CD3Z (other)
chain: EVQLLESGGGLVQPGGSLRLSCAASGRTLSSYAMGWYRQAPGKERELVSSISGSGGSTRYADSVKGRFTISRDNSKNTLYLQMNSLKPEDTAVYYCAVYILELAPGAEYWGQGTQVTVSSTTTPAPRPPTPAPTIASQPLSLRPEACRPAAGGAVHTRGLDFACDFWVLVVVGGVLACYSLLVTVAFIIFWVKRGRKKLLYIFKQPFMRPVQTTQEEDGCSCRFPEEEEGGCELRVKFSRSADAPAYQQGQNQLYNELNLGRREEYDVLDKRRGRDPEMGGKPRRKNPQEGLYNELQKDKMAEAYSEIGMKGERRRGKGHDGLYQGLSTATKDTYDALHMQALPPR
notes: as for B1
B5: MARS SP_NEC_S_31_P3113_CD8 Hinge_CD28 tm_41BB_CD3Z (other)
chain: EVQLLESGGGLVQPGGSLRLSCAASGFTYSSYAMGWYRQAPGKERELVSSISGSGGSTRYADSVKGRFTISRDNSKNTLYLQMNSLKPEDTAVYYCAVAIGVGDYWGQGTQVTVSSTTTPAPRPPTPAPTIASQPLSLRPEACRPAAGGAVHTRGLDFACDFWVLVVVGGVLACYSLLVTVAFIIFWVKRGRKKLLYIFKQPFMRPVQTTQEEDGCSCRFPEEEEGGCELRVKFSRSADAPAYQQGQNQLYNELNLGRREEYDVLDKRRGRDPEMGGKPRRKNPQEGLYNELQKDKMAEAYSEIGMKGERRRGKGHDGLYQGLSTATKDTYDALHMQALPPR
notes: as for B1
B6: NEC_M_29 (VHH)
VHH: EVQLLESGGGLVQPGGSLRLSCAASGFTYTSYVMGWYRQAPGKERELVSAIYGSAGSGYYADSVKGRFTISRDNSKNTLYLQMNSLKPEDTAVYYCARVTTTTHLWSAEYWGQGTQVTVSS
notes: Periplasmic extract (PPE) of a panning clone
B7: NEC_M_17 (VHH)
VHH: EVQLLESGGGLVQPGGSLRLSCAASGFTYSGYAMGWYRQAPGKERELVSSISGSGTLTSYADSVKGRFTISRDNSKNTLYLQMNSLKPEDTAVYYCDVDIPVGDATTVGDYWGQGTQVTVSS
notes: as for B6
B8: NEC_S_5 (VHH)
VHH: EVQLLESGGGLVQPGGSLRLSCAASGLTFRYNAMGWYRQAPGKEREFVSAISGSGGGTYYADSVKGRFTISRDNSKNTLYLQMNSLKPEDTAVYYCAAEGLYDYWGQGTQVTVSS
notes: as for B6
B9: NEC_M_84 (VHH)
VHH: EVQLLESGGGLVQPGGSLRLSCAASGFAFSIDAMGWYRQAPGKEREGVSSISGSGGLTRYADSVKGRFTISRDNSKNTLYLQMNSLKPEDTAVYYCDTAVLTGYSEAFDYWGQGTQVTVSS
notes: as for B6
B10: NEC_S_31 (VHH)
VHH: EVQLLESGGGLVQPGGSLRLSCAASGFTYSSYAMGWYRQAPGKERELVSSISGSGGSTRYADSVKGRFTISRDNSKNTLYLQMNSLKPEDTAVYYCAVAIGVGDYWGQGTQVTVSS
notes: as for B6
B11: NEC_S_56 (VHH)
VHH: B10 VHH with F27L, Y29L, Y37F, A99D, G101R, V102L, G103T
notes: as for B6
B12: NEC_S_11 (VHH)
VHH: EVQLLESGGGLVQPGGSLRLSCAASGLTSSGYAMGWYRQAPGKERELVSSISSSGGLTHYADSVKGRFTISRDNSKNTLYLQMNSLKPEDTAVYYCDADIAYTGADYWGQGTQVTVSS
notes: as for B6
B13: NEC_M_82 (VHH)
VHH: EVQLLESGGGLVQPGGSLRLSCAASGFTYSDYAMGWYRQAPGKERELVSAISSYGGVTNYADSVKGRFTISRDNSKNTLYLQMNSLKPEDTAVYYCAAYGALSIRGYDYWGQGTQVTVSS
notes: as for B6
B14: NEC_M_21 (VHH)
VHH: EVQLLESGGGLVQPGGSLRLSCAASGLTFSSNAMGWYRQAPGKERELVSSISGSGGSTNYADSVKGRFTISRDNSKNTLYLQMNSLKPEDTAVYYCAAEIATYYDFADYWGQGTQVTVSS
notes: as for B6
B15: NEC_M_46 (VHH)
VHH: EVQLLESGGGLVQPGGSLRLSCAASGYTFSDYAMGWYRQAPGKERELVSSISGSGGSTRYADSVKGRFTISRDNSKNTLYLQMNSLKPEDTAVYYCAAVIRQPSTGFYEYWGQGTQVTVSS
notes: as for B6
B16: NEC_M_8 (VHH)
VHH: EVQLLESGGGLVQPGGSLRLSCAASGFTFSSYAMGWYRQAPGKEREFVSSISGSGGLTRYADSVKGRFTISRDNSKNTLYLQMNSLKPEDTAVYYCAVTTGYQGGVYDYWGQGTQVTVSS
notes: as for B6
B17: NEC_S_55 (VHH)
VHH: EVQLLESGGGLVQPGGSLRLSCAASGFTLSSYAMGWYRQAPGKERELVSSISGSGGSTRYADSVKGRFTISRDNSKNTLYLQMNSLKPEDTAVYYCAAYIGGDYLGQGTQVTVSS
notes: as for B6
B18: NEC_M_5 (VHH)
VHH: EVQLLESGGGLVQPGGSLRLSCAASGLSFSSYSMGWYRQAPGKEREFVSAISGSSGSTNYADSVKGRFTISRDNSKNTLYLQMNSLKPEDTAVYYCAAEHRVTTSGVFYDYWGQGTQVTVSS
notes: as for B6
B19: NEC_M_66 (VHH)
VHH: EVQLLESGGGLVQPGGSLRLSCAASGFAYSSYSIGWYRQAPGKERELVSAISGSGGSSRYADSVKGRFTISRDNSKNTLYLQMNSLKPEDTAVYYCAAIAYVYTSTARNYWGQGTQVTVSS
notes: as for B6
B20: NEC_S_2 (VHH)
VHH: EVQLLESGGGLVQPGGSLRLSCAASGSTFSSNAMGWYRQAPGKERELVSSISGSGGSTRYADSVKGRFTISRDNSKNTLYLQMNSLKPEDTAVYYCASYVLYLREYWGQGTQVTVSS
notes: as for B6
B21: NEC_S_16 (VHH)
VHH: EVQLLESGGGLVQPGGSLRLSCAASGFTFSDYYMGWYRQAPGKEREFVSAISSTGGSPYYADSVKGRFTISRDNSKNTLYLQMNSLKPEDTAVYYCAVEVPYDYWGQGTQVTVSS
notes: as for B6
B22: NEC_S_64 (VHH)
VHH: B21 VHH with T28A, F29Y, D31S, T54S, S57G, P58T, V100L, P101T, D103N
notes: as for B6
B23: NEC_M_44 (VHH)
VHH: EVQLLESGGGLVQPGGSLRLSCAASGRTLSSYAMGWYRQAPGKERELVSSISGSGGSTRYADSVKGRFTISRDNSKNTLYLQMNSLKPEDTAVYYCAVYILELAPGAEYWGQGTQVTVSS
notes: as for B6

molecular target: T1, Nectin4-HIS protein (AcroBiosystems …); experiment: flow cytometry, Nectin4-HIS at 2 ug/ml on CAR-transduced Nurkat cells

Binding result, binds:
B1
B2
B3
B4
B5

molecular target: T1, Nectin4-HIS protein (AcroBiosystems …); experiment: ELISA, periplasmic extract on plate-bound Nectin4 (1 ug/mL), anti-Flag:HRP detection
Procedure: ELISA: 8 Maxisorp plates were coated with 100 uL/well Nectin4 at 1 ug/mL overnight at 4° C. Plates were emptied, and 200 uL/well SuperBlock was added to all plates, and incubated for 1 hour at RT. The plate was washed 1× with TBST on the Aquamax plate washer. 60 μL of anti-Flag:HRP (1:10,000 in PBS-T with 1:10 Superblock) was added per well to a V-bottom plate for each library screening plate. 60 uL/well PPE was added per well to the V-bottom plates and incubated for 1 hour at RT. 50 μL of the PPE/Anti-Flag mix was transferred to each ELISA plate and incubated for 1 hour at RT. The plate was washed 3× with TBST on the Aquamax plate washer. 50 uL/well TMB Ultra solution was added and incubated at RT for 30 minutes, until the wells appeared blue. 50 uL/well stop solution was added and absorbance at 450 nm was read on the Spectramax i3× plate reader. 54 unique clones were identified from the two libraries. A subset of 20 clones was selected from V2S and V2 M for cloning into P201 (SEQ ID Nos. 111-130).

Binding result, binds:
B6
B7
B8
B9
B10
B11
B12
B13
B14
B15
B16
B17
B18
B19
B20
B21
B22
B23

From patent publication US20260199463A1 (CENTURY THERAPEUTICS, published 2026)
